Laboratory results as given in article PMC9482650, “Quantitative fragmentomics allow affinity mapping of interactomes” (Nature Communications, 2022).

T1: APBA2_1, Q99767
T1 sequence (Q99767 563-664, limits assumed, looked up): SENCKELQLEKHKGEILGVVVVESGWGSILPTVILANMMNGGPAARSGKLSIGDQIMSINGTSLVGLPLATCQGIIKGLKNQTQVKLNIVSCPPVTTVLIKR

T2: APBA3_1, O96018
T2 sequence (O96018 389-490, limits assumed, looked up): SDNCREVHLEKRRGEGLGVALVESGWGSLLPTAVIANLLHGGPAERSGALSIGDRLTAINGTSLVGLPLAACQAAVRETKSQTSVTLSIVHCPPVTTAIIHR

T3: ARHGEF11, O15085
T3 sequence (O15085 42-136, limits assumed, looked up): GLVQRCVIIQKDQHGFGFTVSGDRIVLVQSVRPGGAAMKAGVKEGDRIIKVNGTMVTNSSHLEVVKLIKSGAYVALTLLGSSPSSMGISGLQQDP

T4: CARD11, Q9BXL7
T4 sequence (Q9BXL7 662-765, limits assumed, looked up): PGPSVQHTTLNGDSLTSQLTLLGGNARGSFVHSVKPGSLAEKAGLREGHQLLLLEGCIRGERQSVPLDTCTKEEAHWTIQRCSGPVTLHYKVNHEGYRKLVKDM

T5: DVL3, Q92997
T5 sequence (Q92997 244-331, limits assumed, looked up): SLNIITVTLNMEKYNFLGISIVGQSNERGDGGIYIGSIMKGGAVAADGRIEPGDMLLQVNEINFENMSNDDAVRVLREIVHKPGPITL

T6: FRMPD1, Q5SYB0
T6 sequence (Q5SYB0 52-145, limits assumed, looked up): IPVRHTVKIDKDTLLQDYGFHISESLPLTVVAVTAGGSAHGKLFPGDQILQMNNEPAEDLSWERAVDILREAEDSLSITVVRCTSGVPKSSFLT

T7: GRIP1_2, Q9Y3R0
T7 sequence (Q9Y3R0 145-248, limits assumed, looked up): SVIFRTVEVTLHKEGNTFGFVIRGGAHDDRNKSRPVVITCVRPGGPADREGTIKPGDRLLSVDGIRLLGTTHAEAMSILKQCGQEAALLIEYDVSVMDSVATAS

T8: MPP6, Q9NZW5
T8 sequence (Q9NZW5 125-219, limits assumed, looked up): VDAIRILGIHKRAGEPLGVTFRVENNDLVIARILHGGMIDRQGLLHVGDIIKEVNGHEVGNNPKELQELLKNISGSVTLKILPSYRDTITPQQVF

T9: NHERF3_1, Q5T2W1
T9 sequence (Q5T2W1 4-100, limits assumed, looked up): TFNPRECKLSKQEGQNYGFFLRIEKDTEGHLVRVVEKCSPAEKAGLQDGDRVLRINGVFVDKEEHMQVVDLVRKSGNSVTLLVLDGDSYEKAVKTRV

T10: PCLO, Q9Y6V0
T10 sequence (Q9Y6V0 4491-4600, limits assumed, looked up): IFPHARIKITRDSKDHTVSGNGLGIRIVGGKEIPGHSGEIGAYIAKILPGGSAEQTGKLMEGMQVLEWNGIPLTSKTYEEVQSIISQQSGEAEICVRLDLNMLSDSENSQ

T11: SNTA1, Q13424
T11 sequence (Q13424 82-180, limits assumed, looked up): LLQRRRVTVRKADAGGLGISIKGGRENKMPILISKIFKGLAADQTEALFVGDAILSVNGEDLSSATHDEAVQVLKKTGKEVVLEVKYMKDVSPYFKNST

T12: TIAM2, Q8IVF5
T12 sequence (Q8IVF5 885-986, limits assumed, looked up): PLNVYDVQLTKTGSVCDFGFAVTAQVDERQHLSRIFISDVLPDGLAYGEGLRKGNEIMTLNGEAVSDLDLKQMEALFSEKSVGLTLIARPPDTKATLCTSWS

T13: TJP3_3, O95049
T13 sequence (O95049 375-456, limits assumed, looked up): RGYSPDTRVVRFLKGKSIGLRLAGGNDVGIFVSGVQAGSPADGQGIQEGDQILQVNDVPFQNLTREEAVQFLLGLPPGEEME


The binders below were run against T1, APBA2_1, Q99767 (assay: holdup assay). Settings: plain residues with an end cap or a label only (N-terminal biotin on a linker: ado-ado).
Design: key: below the threshold = too weak to quantify, mostly under pKd 3.1 to 4

Row | Binder | pKd
1 | QNRIITKTDV [SMCHD1, A6NHR9] | below the threshold

These binders were tested against T2, APBA3_1, O96018 (assay: holdup assay). Settings: plain residues with an end cap or a label only (N-terminal biotin on a linker: ado-ado).
Design: key: below the threshold = too weak to quantify, mostly under pKd 3.1 to 4

Row | Binder | pKd
2 | QNRIITKTDV [SMCHD1, A6NHR9] | below the threshold

Each binder was assayed against T3, ARHGEF11, O15085 (assay: holdup assay). Settings: plain residues with an end cap or a label only (N-terminal biotin on a linker: ado-ado).
Design: key: below the threshold = too weak to quantify, mostly under pKd 3.1 to 4

Row | Binder | pKd
3 | QNRIITKTDV [SMCHD1, A6NHR9] | 4.13

What follows are binders tested against ARHGEF12, Q9NZN5-2 (assay: holdup assay). Settings: plain residues with an end cap or a label only (N-terminal biotin on a linker: ado-ado).
Design: key: below the threshold = too weak to quantify, mostly under pKd 3.1 to 4

Sequence of ARHGEF12, Q9NZN5-2 (Q9NZN5 other isoform, or with tags, fused parts or gaps): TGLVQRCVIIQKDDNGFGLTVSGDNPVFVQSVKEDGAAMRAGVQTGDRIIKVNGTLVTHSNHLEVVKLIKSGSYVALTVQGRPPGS

Row | Binder | pKd
4 | QNRIITKTDV [SMCHD1, A6NHR9] | 4.19

The binders below were run against T4, CARD11, Q9BXL7 (assay: holdup assay). Settings: plain residues with an end cap or a label only (N-terminal biotin on a linker: ado-ado).
Design: key: below the threshold = too weak to quantify, mostly under pKd 3.1 to 4

Row | Binder | pKd
5 | QNRIITKTDV [SMCHD1, A6NHR9] | below the threshold

What follows are binders tested against CASK, O14936 (assay: holdup assay). Settings: plain residues with an end cap or a label only (N-terminal biotin on a linker: ado-ado).
Design: key: below the threshold = too weak to quantify, mostly under pKd 3.1 to 4

Sequence of CASK, O14936 (O14936 487-570): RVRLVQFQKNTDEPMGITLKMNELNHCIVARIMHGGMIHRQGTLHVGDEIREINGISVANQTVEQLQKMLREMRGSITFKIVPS

Row | Binder | pKd
6 | QNRIITKTDV [SMCHD1, A6NHR9] | below the threshold

The binders below were run against DLG5_1, Q8TDM6 (assay: holdup assay). Settings: plain residues with an end cap or a label only (N-terminal biotin on a linker: ado-ado).
Design: key: below the threshold = too weak to quantify, mostly under pKd 3.1 to 4

Sequence of DLG5_1, Q8TDM6 (Q8TDM6 617-713): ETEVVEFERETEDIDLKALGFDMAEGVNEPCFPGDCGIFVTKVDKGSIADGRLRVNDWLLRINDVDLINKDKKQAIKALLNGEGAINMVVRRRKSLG

Row | Binder | pKd
7 | QNRIITKTDV [SMCHD1, A6NHR9] | below the threshold

The binders below were run against T5, DVL3, Q92997 (assay: holdup assay). Settings: plain residues with an end cap or a label only (N-terminal biotin on a linker: ado-ado).
Design: key: below the threshold = too weak to quantify, mostly under pKd 3.1 to 4

Row | Binder | pKd
8 | QNRIITKTDV [SMCHD1, A6NHR9] | below the threshold

The binders below were run against T6, FRMPD1, Q5SYB0 (assay: holdup assay). Settings: plain residues with an end cap or a label only (N-terminal biotin on a linker: ado-ado).
Design: key: below the threshold = too weak to quantify, mostly under pKd 3.1 to 4

Row | Binder | pKd
9 | QNRIITKTDV [SMCHD1, A6NHR9] | below the threshold

What follows are binders tested against T7, GRIP1_2, Q9Y3R0 (assay: holdup assay). Settings: plain residues with an end cap or a label only (N-terminal biotin on a linker: ado-ado).
Design: key: below the threshold = too weak to quantify, mostly under pKd 3.1 to 4

Row | Binder | pKd
10 | QNRIITKTDV [SMCHD1, A6NHR9] | below the threshold

Each binder was assayed against GRIP2_3, Q9C0E4 (assay: holdup assay). Settings: plain residues with an end cap or a label only (N-terminal biotin on a linker: ado-ado).
Design: key: below the threshold = too weak to quantify, mostly under pKd 3.1 to 4

Sequence of GRIP2_3, Q9C0E4 (Q9C0E4 238-339): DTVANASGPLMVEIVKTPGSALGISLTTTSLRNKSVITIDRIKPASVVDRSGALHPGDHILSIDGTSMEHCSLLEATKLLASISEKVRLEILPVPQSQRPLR

Row | Binder | pKd
11 | QNRIITKTDV [SMCHD1, A6NHR9] | below the threshold

Each binder was assayed against GRIP2_6, Q9C0E4 (assay: holdup assay). Settings: plain residues with an end cap or a label only (N-terminal biotin on a linker: ado-ado).
Design: key: below the threshold = too weak to quantify, mostly under pKd 3.1 to 4

Sequence of GRIP2_6, Q9C0E4 (Q9C0E4 648-740): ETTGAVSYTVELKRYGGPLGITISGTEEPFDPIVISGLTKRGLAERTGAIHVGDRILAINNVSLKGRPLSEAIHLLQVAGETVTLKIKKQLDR

Row | Binder | pKd
12 | QNRIITKTDV [SMCHD1, A6NHR9] | 3.49

The binders below were run against HTRA2, O43464 (assay: holdup assay). Settings: plain residues with an end cap or a label only (N-terminal biotin on a linker: ado-ado).
Design: key: below the threshold = too weak to quantify, mostly under pKd 3.1 to 4

Sequence of HTRA2, O43464 (O43464 355-458): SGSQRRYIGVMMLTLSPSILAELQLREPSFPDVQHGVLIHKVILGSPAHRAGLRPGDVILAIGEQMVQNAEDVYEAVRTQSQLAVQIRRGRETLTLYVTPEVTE

Row | Binder | pKd
13 | QNRIITKTDV [SMCHD1, A6NHR9] | below the threshold

These binders were tested against IL16_1, Q14005 (assay: holdup assay). Settings: plain residues with an end cap or a label only (N-terminal biotin on a linker: ado-ado).
Design: key: below the threshold = too weak to quantify, mostly under pKd 3.1 to 4

Sequence of IL16_1, Q14005 (Q14005 210-306): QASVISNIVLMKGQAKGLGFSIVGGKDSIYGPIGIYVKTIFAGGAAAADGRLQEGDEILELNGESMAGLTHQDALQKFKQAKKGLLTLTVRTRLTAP

Row | Binder | pKd
14 | QNRIITKTDV [SMCHD1, A6NHR9] | below the threshold

What follows are binders tested against Inadl_6, Q8NI35 (assay: holdup assay). Settings: plain residues with an end cap or a label only (N-terminal biotin on a linker: ado-ado).
Design: key: below the threshold = too weak to quantify, mostly under pKd 3.1 to 4

Sequence of Inadl_6, Q8NI35 (Q8NI35 1058-1167): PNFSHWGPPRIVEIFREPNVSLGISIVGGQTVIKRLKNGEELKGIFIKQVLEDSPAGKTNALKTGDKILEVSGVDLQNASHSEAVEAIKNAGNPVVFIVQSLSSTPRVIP

Row | Binder | pKd
15 | QNRIITKTDV [SMCHD1, A6NHR9] | below the threshold

Each binder was assayed against MAGI2_6, Q86UL8 (assay: holdup assay). Settings: plain residues with an end cap or a label only (N-terminal biotin on a linker: ado-ado).
Design: key: below the threshold = too weak to quantify, mostly under pKd 3.1 to 4

Sequence of MAGI2_6, Q86UL8 (Q86UL8 1141-1229): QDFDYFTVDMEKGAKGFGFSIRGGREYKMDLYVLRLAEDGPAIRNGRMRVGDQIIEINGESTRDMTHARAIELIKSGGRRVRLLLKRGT

Row | Binder | pKd
16 | QNRIITKTDV [SMCHD1, A6NHR9] | below the threshold

Each binder was assayed against T8, MPP6, Q9NZW5 (assay: holdup assay). Settings: plain residues with an end cap or a label only (N-terminal biotin on a linker: ado-ado).
Design: key: below the threshold = too weak to quantify, mostly under pKd 3.1 to 4

Row | Binder | pKd
17 | QNRIITKTDV [SMCHD1, A6NHR9] | below the threshold

The binders below were run against T9, NHERF3_1, Q5T2W1 (assay: holdup assay). Settings: plain residues with an end cap or a label only (N-terminal biotin on a linker: ado-ado).
Design: key: below the threshold = too weak to quantify, mostly under pKd 3.1 to 4

Row | Binder | pKd
18 | QNRIITKTDV [SMCHD1, A6NHR9] | below the threshold

These binders were tested against NHERF4_2, Q86UT5 (assay: holdup assay). Settings: plain residues with an end cap or a label only (N-terminal biotin on a linker: ado-ado).
Design: key: below the threshold = too weak to quantify, mostly under pKd 3.1 to 4

Sequence of NHERF4_2, Q86UT5 (Q86UT5 220-308): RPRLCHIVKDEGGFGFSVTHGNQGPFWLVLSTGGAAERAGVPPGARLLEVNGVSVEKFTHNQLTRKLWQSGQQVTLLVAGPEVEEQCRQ

Row | Binder | pKd
19 | QNRIITKTDV [SMCHD1, A6NHR9] | below the threshold

The binders below were run against NOS1, P29475 (assay: holdup assay). Settings: plain residues with an end cap or a label only (N-terminal biotin on a linker: ado-ado).
Design: key: below the threshold = too weak to quantify, mostly under pKd 3.1 to 4

Sequence of NOS1, P29475 (P29475 9-101): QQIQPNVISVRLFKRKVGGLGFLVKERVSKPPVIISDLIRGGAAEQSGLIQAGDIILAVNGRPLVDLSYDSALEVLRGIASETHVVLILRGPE

Row | Binder | pKd
20 | QNRIITKTDV [SMCHD1, A6NHR9] | below the threshold

Each binder was assayed against T10, PCLO, Q9Y6V0 (assay: holdup assay). Settings: plain residues with an end cap or a label only (N-terminal biotin on a linker: ado-ado).
Design: key: below the threshold = too weak to quantify, mostly under pKd 3.1 to 4

Row | Binder | pKd
21 | QNRIITKTDV [SMCHD1, A6NHR9] | below the threshold

These binders were tested against PICK1, Q9NRD5 (assay: holdup assay). Settings: plain residues with an end cap or a label only (N-terminal biotin on a linker: ado-ado).
Design: key: below the threshold = too weak to quantify, mostly under pKd 3.1 to 4

Sequence of PICK1, Q9NRD5 (Q9NRD5 17-115): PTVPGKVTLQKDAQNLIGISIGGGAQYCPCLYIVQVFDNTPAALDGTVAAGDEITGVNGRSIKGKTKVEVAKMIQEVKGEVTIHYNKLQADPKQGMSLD

Row | Binder | pKd
22 | QNRIITKTDV [SMCHD1, A6NHR9] | below the threshold

These binders were tested against T11, SNTA1, Q13424 (assay: holdup assay). Settings: plain residues with an end cap or a label only (N-terminal biotin on a linker: ado-ado).
Design: key: below the threshold = too weak to quantify, mostly under pKd 3.1 to 4

Row | Binder | pKd
23 | QNRIITKTDV [SMCHD1, A6NHR9] | 3.61

What follows are binders tested against T12, TIAM2, Q8IVF5 (assay: holdup assay). Settings: plain residues with an end cap or a label only (N-terminal biotin on a linker: ado-ado).
Design: key: below the threshold = too weak to quantify, mostly under pKd 3.1 to 4

Row | Binder | pKd
24 | QNRIITKTDV [SMCHD1, A6NHR9] | below the threshold

These binders were tested against T13, TJP3_3, O95049 (assay: holdup assay). Settings: plain residues with an end cap or a label only (N-terminal biotin on a linker: ado-ado).
Design: key: below the threshold = too weak to quantify, mostly under pKd 3.1 to 4

Row | Binder | pKd
25 | QNRIITKTDV [SMCHD1, A6NHR9] | below the threshold
